US20110008345A1 (GlaxoSmithKline, published 2011)
Numbering of substitutions follows the chain as printed. In names and notes the source's numbering stands. Several values for one entry are separate records, joined by “and”; a condition that tells them apart may be missing. Identical values can stand only once. Each block holds one binder with its values, some of them ahead of it.

Experiments:
[1] = molecular target: T1, recombinant E. coli-expressed human IL-13 (human, UniProt P35225 35-146); assay: SPR exp 2
T1 construct: made and purified at GSK; also called Interleukin-13; rhIL-13

[2] = molecular target: T2, recombinant E. coli-expressed human IL-4 (human, UniProt P05112 25-153); assay: SPR exp 2
T2 construct: made and purified at GSK; also called Interleukin-4; rhIL-4
T2 sequence: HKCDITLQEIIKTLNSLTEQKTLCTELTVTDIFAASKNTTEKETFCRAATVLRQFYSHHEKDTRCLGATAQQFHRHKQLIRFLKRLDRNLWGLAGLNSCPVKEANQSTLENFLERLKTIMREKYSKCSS

[3] = molecular target: T1, recombinant E. coli-expressed human …; assay: SPR exp 1
[4] = molecular target: T3, recombinant E. coli-expressed cynomolgus IL-13 (cynomolgus, UniProt Q0PW92 21-132); assay: SPR
T3 construct: also called cyno IL-13

[5] = molecular target: T4, recombinant E. coli-expressed cynomolgus IL-4 (cynomolgus, UniProt P79339 25-153); assay: SPR
T4 construct: also called cyno IL-4
T4 sequence (looked up): T2 sequence with E26K, V29I, F33L

[6] = molecular target: T2, recombinant E. coli-expressed human IL-4; assay: SPR exp 1
[7] = molecular target: T1, recombinant E. coli-expressed human …; assay: SPR
[8] = molecular target: T2, recombinant E. coli-expressed human IL-4; assay: SPR
[9] = molecular target: T2, recombinant E. coli-expressed human IL-4; assay: ELISA, IL-4 binding to IL4Ralpha-Fc
[10] = molecular target: T1, recombinant E. coli-expressed human …; assay: SPR; remark: listed apart in the source

Kd [1]: 0.451 nM and 0.595 nM
koff [1]: 0.000238 s⁻¹ and 0.00032 s⁻¹
kon [1]: 526000 M⁻¹ s⁻¹ and 538000 M⁻¹ s⁻¹
Kd [2]: 0.041 nM and 0.06 nM
koff [2]: 0.000121 s⁻¹ and 0.000152 s⁻¹
kon [2]: 2.95e+06 M⁻¹ s⁻¹ and 2.54e+06 M⁻¹ s⁻¹
B1: PascoL-ASTKG-474 (bispecific antibody, human IgG1, kappa)
heavy: not shown
light: DIVLTQSPSSLSASVGDRVTITCKASQSVDYDGDSYMNWYQQKPGKAPKLLIYAASNLESGIPSRFSGSGSGTDFTFTISSLQPEDIATYYCQQSNEDPPTFGQGTKVEIKRTVAAPSVFIFPPSDEQLKSGTASVVCLLNNFYPREAKVQWKVDNALQSGNSQESVTEQDSKDSTYSLSSTLTLSKADYEKHKVYACEVTHQGLSSPVTKSFNRGECASTKGPTGSGVQLLESGGGLVQPGGSLRLSCAASGFTFAWYDMGWVRQAPGKGLEWVSSIDWHGEVTYYADSVKGRFTISRDNSKNTLYLQMNSLRAEDTAVYYCATAEDEPGYDYWGQGTLVTVSS

Kd [3]: 0.94 nM
koff [3]: 0.00042 s⁻¹
kon [3]: 450000 M⁻¹ s⁻¹
Kd [4]: 27.1 nM
koff [4]: 0.0117 s⁻¹
kon [4]: 433000 M⁻¹ s⁻¹
Kd [5]: 0.0491 nM
koff [5]: 8.85e-05 s⁻¹
kon [5]: 1.8e+06 M⁻¹ s⁻¹
Kd [6]: 0.02 nM
koff [6]: 9.7e-05 s⁻¹
kon [6]: 5.5e+06 M⁻¹ s⁻¹
B2: PascoH-TVAAPS-474 (bispecific antibody, human IgG1, kappa)
heavy: not shown
light: DIVLTQSPSSLSASVGDRVTITCKASQSVDYDGDSYMNWYQQKPGKAPKLLIYAASNLESGIPSRFSGSGSGTDFTFTISSLQPEDIATYYCQQSNEDPPTFGQGTKVEIKRTVAAPSVFIFPPSDEQLKSGTASVVCLLNNFYPREAKVQWKVDNALQSGNSQESVTEQDSKDSTYSLSSTLTLSKADYEKHKVYACEVTHQGLSSPVTKSFNRGEC

Kd [3]: 1.5 nM
koff [3]: 0.00046 s⁻¹
kon [3]: 310000 M⁻¹ s⁻¹
Kd [4]: 29.5 nM
koff [4]: 0.0107 s⁻¹
kon [4]: 364000 M⁻¹ s⁻¹
Kd [5]: 0.0445 nM
koff [5]: 7.9e-05 s⁻¹
kon [5]: 1.78e+06 M⁻¹ s⁻¹
Kd [6]: 0.02 nM
koff [6]: 8.6e-05 s⁻¹
kon [6]: 5.3e+06 M⁻¹ s⁻¹
B3: PascoH-ASTKG-474 (bispecific antibody, human IgG1, kappa)
heavy: not shown
light: B2 light

Kd [3]: 1.8 nM
koff [3]: 0.00062 s⁻¹
kon [3]: 340000 M⁻¹ s⁻¹
Kd [6]: 0.02 nM
koff [6]: 0.00011 s⁻¹
kon [6]: 5.1e+06 M⁻¹ s⁻¹
B4: PascoH-ELQLE-474 (bispecific antibody, human IgG1, kappa)
heavy: not shown
light: B2 light

Kd [3]: 1.1 nM
koff [3]: 0.0004 s⁻¹
kon [3]: 350000 M⁻¹ s⁻¹
Kd [6]: 0.02 nM
koff [6]: 9.8e-05 s⁻¹
kon [6]: 4.9e+06 M⁻¹ s⁻¹
B5: PascoH-EPKSC-474 (bispecific antibody, human IgG1, kappa)
heavy: not shown
light: B2 light

Kd [7]: 0.46 nM
Kd [8]: 345 nM
koff [8]: 0.00118 s⁻¹
kon [8]: 3420 M⁻¹ s⁻¹
B6: 586H-147 (bispecific antibody, human IgG1, kappa)
heavy: not shown
light: DIVMTQSPLSLPVTPGEPASISCRSSQNIVHINGNTYLEWYLQKPGQSPRLLIYKISDRFSGVPDRFSGSGSGTDFTLKISRVEADDVGIYYCFQGSHVPWTFGQGTKLEIKRTVAAPSVFIFPPSDEQLKSGTASVVCLLNNFYPREAKVQWKVDNALQSGNSQESVTEQDSKDSTYSLSSTLTLSKADYEKHKVYACEVTHQGLSSPVTKSFNRGEC

Kd [7]: 0.44 nM
B7: 586H (antibody, human IgG1, kappa)
heavy: not shown
light: B6 light
notes: no dAb; heavy chain ends in GS
binding result [8]: no binding (tested: 512 nM top concentration)

Kd [7]: 0.45 nM
Kd [8]: 108 nM
koff [8]: 0.000457 s⁻¹
kon [8]: 4210 M⁻¹ s⁻¹
B8: 586H-G4S-147 (bispecific antibody, human IgG1, kappa)
heavy: not shown
light: B6 light

Kd [7]: 0.44 nM
IC50 [9]: 26.8 nM
B9: 586H-210 (bispecific antibody, human IgG1, kappa)
heavy: not shown
light: B6 light

Kd [7]: 0.46 nM
Kd [8]: 26.4 nM
koff [8]: 0.000671 s⁻¹
kon [8]: 25400 M⁻¹ s⁻¹
B10: 586H-EPKSC-147 (bispecific antibody, human IgG1, kappa)
heavy: not shown
light: B6 light

Kd [7]: 0.32 nM
B11: 586H-ASTKG (antibody, human IgG1, kappa)
heavy: not shown
light: B6 light
notes: no dAb; linker only
binding result [8]: no binding (tested: 512 nM top concentration)

Kd [7]: 0.44 nM
Kd [8]: 18.8 nM
koff [8]: 0.00069 s⁻¹
kon [8]: 36700 M⁻¹ s⁻¹
B12: 586H-ASTKG-147 (bispecific antibody, human IgG1, kappa)
heavy: not shown
light: B6 light

Kd [7]: 0.45 nM
B13: 586H-EPKSC (antibody, human IgG1, kappa)
heavy: not shown
light: B6 light
binding result [8]: no binding (tested: 512 nM top concentration)

Kd [7]: 0.47 nM
B14: 586H-ELQLE (antibody, human IgG1, kappa)
heavy: not shown
light: B6 light
notes: no dAb; linker only
binding result [8]: no binding (tested: 512 nM top concentration)

Kd [7]: 0.39 nM
Kd [8]: 67 nM
koff [8]: 0.000411 s⁻¹
kon [8]: 6130 M⁻¹ s⁻¹
B15: 586H-25 (bispecific antibody, human IgG1, kappa)
heavy: not shown
light: B6 light

Kd [7]: 0.41 nM
Kd [8]: 151 nM
koff [8]: 0.000954 s⁻¹
kon [8]: 6300 M⁻¹ s⁻¹
B16: 586H-G4S-25 (bispecific antibody, human IgG1, kappa)
heavy: not shown
light: B6 light

Kd [7]: 0.42 nM
Kd [8]: 18.8 nM
koff [8]: 0.00057 s⁻¹
kon [8]: 30300 M⁻¹ s⁻¹
B17: 586H-EPKSC-154 (bispecific antibody, human IgG1, kappa)
heavy: not shown
light: B6 light

Kd [7]: 0.54 nM
Kd [8]: 21.8 nM
koff [8]: 0.0012 s⁻¹
B18: 586H-ASTKG-25 (bispecific antibody, human IgG1, kappa)
heavy: not shown
light: B6 light

Kd [7]: 0.44 nM
Kd [8]: 8.7 nM
koff [8]: 0.000284 s⁻¹
kon [8]: 32600 M⁻¹ s⁻¹
B19: 586H-ASTKG-154 (bispecific antibody, human IgG1, kappa)
heavy: not shown
light: B6 light

Kd [7]: 0.37 nM
Kd [8]: 138 nM
koff [8]: 0.000685 s⁻¹
kon [8]: 5000 M⁻¹ s⁻¹
B20: 586H-G4S-154 (bispecific antibody, human IgG1, kappa)
heavy: not shown
light: B6 light

Kd [7]: 0.55 nM
Kd [8]: 29.6 nM
koff [8]: 0.00142 s⁻¹
kon [8]: 47900 M⁻¹ s⁻¹
B21: 586H-EPKSC-25 (bispecific antibody, human IgG1, kappa)
heavy: not shown
light: B6 light

Kd [7]: 0.46 nM
Kd [8]: 285 nM
koff [8]: 0.00174 s⁻¹
kon [8]: 6100 M⁻¹ s⁻¹
B22: 586H-154 (bispecific antibody, human IgG1, kappa)
heavy: not shown
light: B6 light

Kd [1]: 1.34 nM and 1.24 nM
koff [1]: 0.000382 s⁻¹ and 0.000386 s⁻¹
kon [1]: 286000 M⁻¹ s⁻¹ and 312000 M⁻¹ s⁻¹
Kd [2]: 0.065 nM and 0.048 nM
koff [2]: 0.000184 s⁻¹ and 0.000122 s⁻¹
kon [2]: 2.8e+06 M⁻¹ s⁻¹ and 2.53e+06 M⁻¹ s⁻¹
B23: PascoL-474 (bispecific antibody, human IgG1, kappa)
heavy: not shown
light: DIVLTQSPSSLSASVGDRVTITCKASQSVDYDGDSYMNWYQQKPGKAPKLLIYAASNLESGIPSRFSGSGSGTDFTFTISSLQPEDIATYYCQQSNEDPPTFGQGTKVEIKRTVAAPSVFIFPPSDEQLKSGTASVVCLLNNFYPREAKVQWKVDNALQSGNSQESVTEQDSKDSTYSLSSTLTLSKADYEKHKVYACEVTHQGLSSPVTKSFNRGECGSGVQLLESGGGLVQPGGSLRLSCAASGFTFAWYDMGWVRQAPGKGLEWVSSIDWHGEVTYYADSVKGRFTISRDNSKNTLYLQMNSLRAEDTAVYYCATAEDEPGYDYWGQGTLVTVSS

binding result [10]: no binding
B24: anti-CD20 mAb (antibody, human IgG1, kappa, V domains shown)
VH: QVQLQQPGAELVKPGASVKMSCKASGYTFTSYNMHWVKQTPGRGLEWIGAIYPGNGDTSYNQKFKGKATLTADKSSSTAYMQLSSLTSEDSAVYYCARSTYYGGDWYFNVWGAGTLVTVSS
VL: QIVLSQSPAILSASPGEKVTMTCRASSSVSYIHWFQQKPGSSPKPWIYATSNLASGVPVRFSGSGSGTSYSLTISRVEAEDAATYYCQQWTSNPPTFGGGTKLEIKR
notes: also called Rituxan; anti-CD20 control antibody

Kd [1]: 0.801 nM and 0.815 nM
koff [1]: 0.000334 s⁻¹ and 0.000286 s⁻¹
kon [1]: 417000 M⁻¹ s⁻¹ and 351000 M⁻¹ s⁻¹
Kd [2]: 0.139 nM and 0.127 nM
koff [2]: 0.000258 s⁻¹ and 0.000318 s⁻¹
kon [2]: 1.86e+06 M⁻¹ s⁻¹ and 2.51e+06 M⁻¹ s⁻¹
B25: PascoL-EPKSC-474 (bispecific antibody, human IgG1, kappa)
heavy: not shown
light: DIVLTQSPSSLSASVGDRVTITCKASQSVDYDGDSYMNWYQQKPGKAPKLLIYAASNLESGIPSRFSGSGSGTDFTFTISSLQPEDIATYYCQQSNEDPPTFGQGTKVEIKRTVAAPSVFIFPPSDEQLKSGTASVVCLLNNFYPREAKVQWKVDNALQSGNSQESVTEQDSKDSTYSLSSTLTLSKADYEKHKVYACEVTHQGLSSPVTKSFNRGECEPKSCDKTHTCPPCPGSGVQLLESGGGLVQPGGSLRLSCAASGFTFAWYDMGWVRQAPGKGLEWVSSIDWHGEVTYYADSVKGRFTISRDNSKNTLYLQMNSLRAEDTAVYYCATAEDEPGYDYWGQGTLVTVSS
